# B1: CD137 MAB-6 (1.1) (antibody, V domains shown)
# VH: QVQLQESGPGLVKPSETLSLTCTVSGGSISSYYWSWIRQPPGKGLEWIGRIYTSGSTNYNPSLKSRVTMSVDTSKNQFSLKLSSVTAADTAVYYCARDGWYDEDYNYYGMDVWGQGTTVTVSS
# VL: EIVMTQSPATLSLTPGERATLSCRASQSVSSNYLSWFQQIPGQAPRLLIYGASTRATGIPARFSGSGSGTDFTLTISSLQPEDFAVYYCQQDYDLPWTFGQGTKVEIK
# notes: Fully human variable domains from a TRIANNI MOUSE hybridoma
# B2: chCD137 MAB-3 (antibody, V domains shown)
# VH: QVQLQQPGAELVRPGASVKLSCKASGYTFTSYWINWVKQRPGQGLEWIGNIYPSDSYTNYNQKFKDKATLTVDKSSSTAYMQLSSPTSEDSAVYYCTRDYGSSYSFDYWGQGTTLTVSS
# VL: DIQMTQTTSSLSASLGDRVTISCRPSQDISNYLNWYQQKPDGTVKLLIYYTSRLRSGVPSRFSGSGSGTDYSLTISNLEQEDIATYFCQQGDTLPYTFGGGTKLEIK
# Experiments:
# [1] = target: T1, CD137 expressed on the cell surface (CHO/CD137 cells) (UniProt Q07011 24-255, limits assumed); assay: flow cytometry on CHO/CD137 cells (Surface Binding)
# T1 construct: whole, on cells; also called cell surface CD137; Jurkat-NF-κB-Luc reporter cells overexpressing CD137
# Description: FACS analysis to evaluate the test articles for binding to cell surface CD137 was performed essentially as follows: 100 μL of CHO cells expressing CD137 (CHO/CD137) (1.0×10⁵ to 1×10⁶ cells/well) and 100 μL of serially diluted test article or control was added to each well of microtiter assay plate(s), mixed and incubated at RT for about 30 min. The cells were washed with FACS Buffer and secondary antibody (goat anti-human-APC, PE, or FITC) was then added to each well (1:1000), after which, the components were mixed and the wells were incubated at RT for about 30 min. Cells were washed and resuspended in 250 μL FACS Buffer and analyzed by flow cytometry (BD LSR Fortessa or FACSCanto II) for cell events collection. Data analysis were performed via FloJo v10.
# [2] = target: T2, His-tagged soluble human CD137 fusion protein (huCD137) (human, UniProt Q07011 24-186); assay: ELISA, plate-coated soluble human CD137, hybridoma supernatant
# T2 construct: extracellular domain; The ELISA method allows a His or a human Fc fusion; also called shCD137 His; huCD137-His; not shown: His tag
# Description: (§1) ELISA assays to evaluate the test articles for CD137 binding were performed essentially as follows: flat bottom maxisorb 96-well plates were coated with soluble human or cynomolgus monkey CD137 (the extracellular domain of human or cynomolgus monkey CD137 fused to a His tag (shCD137 His or scyCD137 His) or to a human Fc Region (shCD137 hFc or scyCD137 hFc)), each at 0.5 or 1 μg/mL. The plates were washed, blocked with PBS buffer containing 0.5% bovine serum albumin and 0.1% Tween20, and incubated with a test article (e.g., cell supernatants or purified mAb). For the hybridoma supernatants anti-CD137 antibody was utilized at 1.0 μg/mL and six three-fold serial dilutions. The amount of test article binding to the immobilized CD137 (human or cynomolgus monkey) was assessed using a goat anti-mouse IgG-HRP secondary antibody. All samples were analyzed on a plate reader (Victor 2 Wallac, Perkin Elmer) and EC50 values were calculated from dose-response curves by nonlinear regression analysis.
# [3] = target: T3, soluble cynomolgus monkey CD137 (cyCD137) (cynomolgus monkey, UniProt A9YYE7 24-186); assay: ELISA, plate-coated soluble cynomolgus CD137, hybridoma supernatant
# T3 construct: extracellular domain; also called scyCD137 His; scyCD137 hFc; not shown: His tag or human Fc Region
# Description: as §1
# [4] = target: T2, His-tagged soluble human CD137 fusion …; assay: BIACORE SPR, antibody captured on anti-human Fc, soluble CD137 His as analyte, 1:1 model
# Source text: The binding kinetics of the anti-CD137 antibodies (having human Fc regions) were investigated using BIACORE™ SPR analysis. The anti-CD137 antibodies were captured on a Fab′2 goat-anti-human Fc surface.
# [5] = target: T2, His-tagged soluble human CD137 fusion …; assay: ELISA, plate-coated soluble human CD137
# [6] = target: T3, soluble cynomolgus monkey CD137 …; assay: ELISA, plate-coated soluble cynomolgus CD137
# T2 sequence (Q07011 24-186): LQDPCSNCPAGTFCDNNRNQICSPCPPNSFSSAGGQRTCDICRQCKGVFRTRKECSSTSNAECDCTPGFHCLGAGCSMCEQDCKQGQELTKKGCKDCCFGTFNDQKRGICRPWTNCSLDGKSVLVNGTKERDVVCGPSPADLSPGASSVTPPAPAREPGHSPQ
# T1 sequence (Q07011 24-255 limits assumed): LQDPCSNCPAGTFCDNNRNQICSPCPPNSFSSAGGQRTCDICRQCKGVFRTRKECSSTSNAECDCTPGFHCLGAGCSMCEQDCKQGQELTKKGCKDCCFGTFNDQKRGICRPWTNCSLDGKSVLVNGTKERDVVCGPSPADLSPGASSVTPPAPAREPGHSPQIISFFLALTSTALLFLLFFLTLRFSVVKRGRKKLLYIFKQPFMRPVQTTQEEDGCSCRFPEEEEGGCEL
# T3 sequence (A9YYE7 entry or part of it): as the sequence (Q07011 24-186) above, with P4L, N19S, R50K, T66I, P67S, F69Y, G75E, V149A counted along it
binder,measurement,setting,value
B1,EC50,[1],0.021 µg/mL
same,EC50,[2],0.038 µg/mL
same,EC50,[3],0.049 µg/mL
same,Kd,[4],16 nM
same,koff,[4],0.0067 s⁻¹
same,kon,[4],420000 M⁻¹ s⁻¹
B2,EC50,[5],0.034 µg/mL
same,EC50,[6],0.044 µg/mL
same,EC50,[1],0.01 µg/mL
same,Kd,[4],38 nM
same,koff,[4],0.025 s⁻¹
same,kon,[4],660000 M⁻¹ s⁻¹

# Reference: patent publication US20230094162A1 (MacroGenics, published 2023)
